Results on twelve molecules are retold here after patent US20240301076A1 (CEPHALON, published 2024).

Assay [1] deals with T1, human CXCR2 (human, UniProt P25025 1-360).
T1 construct: also called CXC chemokine receptor 2; hCXCR2
T1 sequence: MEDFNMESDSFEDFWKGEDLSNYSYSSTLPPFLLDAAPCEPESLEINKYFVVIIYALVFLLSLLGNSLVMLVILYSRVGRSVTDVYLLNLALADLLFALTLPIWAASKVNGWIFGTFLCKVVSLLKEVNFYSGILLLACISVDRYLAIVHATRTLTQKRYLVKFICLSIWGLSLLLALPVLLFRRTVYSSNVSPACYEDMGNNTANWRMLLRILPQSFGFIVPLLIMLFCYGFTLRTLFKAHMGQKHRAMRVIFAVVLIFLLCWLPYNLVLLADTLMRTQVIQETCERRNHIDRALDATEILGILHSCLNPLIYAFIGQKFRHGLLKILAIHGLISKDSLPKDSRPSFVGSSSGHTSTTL
The assay is described as follows: flow cytometry, CXCR2-transfected Expi293F cells. Here is the method:
Harvested cells were resuspended in FACS buffer (1×PBS+0.5% (w/v) bovine serum albumin (BSA)+2 mM EDTA pH 7.2). Approximately 2×10⁵ cells were added per well in a 96-well round-bottomed plate. Cells were pelleted by centrifugation at 400 g for 5 mins at 4° C. and supernatants discarded. 25 μL of each test antibody or control antibody was added to the cells and incubated for 30 minutes at 4° C. Cells were washed twice in 100 μL FACS buffer followed by centrifugation at 400 g for 5 mins at 4° C.
For detection, 50 μL of secondary antibody (Table 2) was added to relevant samples. Commercially available antibodies that bound to transfected CXCR family members were used as positive controls to ensure that the cells were expressing the receptors. Cells were washed twice in 200 μL of FACS buffer followed by centrifugation at 400 g for 5 mins at 4° C. Before sample acquisition, cells were resuspended in 100 μL of FACS buffer. Samples were acquired using the high throughput sampler on a FACSCanto™ II cytometer (Beckton-Dickinson).
Each variant heavy chain was co-expressed with the parental light chain and vice versa.
In general terms: A flow cytometer gives signals particle by particle.

In assay [2] the target is T1, human CXCR2. The assay is described as follows: cell-based or functional assay.

B1: BKO-4A8 variant VH I94K (antibody, human IgG4 S228P, lambda, V domains shown)
VH: EVQLLESGGGLVQPGGSLRLSCAASGFTFSSSTMSWVRQAPGKGLEWVSAISGRGRNTYYADSVKGRFTISRDNSRNTLYLQMNSLRAEDTAVYYCAKQMGYWGQGILVTVSS
VL: QSALTQPPSASGSPGQSVTISCIGTSSDVGGYNYVSWYQQHPDKAPKLMIYEVNKRPSGVPDRFSGSKSGNTASLTVSGLQAEDEADYYCSSYAGNNNFGVFGGGTKLTVLG
notes: IgG4 S228P, lambda; parental light chain; also called 4A8 VH I94K
On to B1, for which, in assay [1], the “Fold change in binding relative to BKO-4A8” value stood at 0.7 fold. Further, in assay [2], the “IC50, CXCL1, Tango assay” value was 78 pM and the “IC50, CXCL8, Tango assay” value stood at 71 pM.

B2: BKO-4A8 variant VH N56S (antibody, human IgG4 S228P, lambda, V domains shown)
VH: EVQLLESGGGLVQPGGSLRLSCAASGFTFSSSTMSWVRQAPGKGLEWVSAISGRGRSTYYADSVKGRFTISRDNSRNTLYLQMNSLRAEDTAVYYCAIQMGYWGQGILVTVSS
VL: QSALTQPPSASGSPGQSVTISCIGTSSDVGGYNYVSWYQQHPDKAPKLMIYEVNKRPSGVPDRFSGSKSGNTASLTVSGLQAEDEADYYCSSYAGNNNFGVFGGGTKLTVLG
notes: IgG4 S228P, lambda; parental light chain; also called 4A8 VH N56S
With B2, the “Fold change in binding relative to BKO-4A8” value in assay [1] was 1 fold. Moreover, in assay [2], the “IC50, CXCL1, Tango assay” value was found to be 158 pM and the “IC50, CXCL8, Tango assay” value amounted to 129 pM.

B3: BKO-4A8 variant VL N94Y (antibody, human IgG4 S228P, lambda, V domains shown)
VH: EVQLLESGGGLVQPGGSLRLSCAASGFTFSSSTMSWVRQAPGKGLEWVSAISGRGRNTYYADSVKGRFTISRDNSRNTLYLQMNSLRAEDTAVYYCAIQMGYWGQGILVTVSS
VL: QSALTQPPSASGSPGQSVTISCIGTSSDVGGYNYVSWYQQHPDKAPKLMIYEVNKRPSGVPDRFSGSKSGNTASLTVSGLQAEDEADYYCSSYAGYNNFGVFGGGTKLTVLG
notes: IgG4 S228P, lambda; parental heavy chain; also called 4A8 VL N94Y
Consider B3, for which the “Fold change in binding relative to BKO-4A8” value in assay [1] was found to be 0.5 fold. Moreover, in assay [2], the “IC50, CXCL1, Tango assay” value worked out at 164 pM and the “IC50, CXCL8, Tango assay” value stood at 105 pM.

B4: BKO-4A8 variant VH M96K (antibody, human IgG4 S228P, lambda, V domains shown)
VH: EVQLLESGGGLVQPGGSLRLSCAASGFTFSSSTMSWVRQAPGKGLEWVSAISGRGRNTYYADSVKGRFTISRDNSRNTLYLQMNSLRAEDTAVYYCAIQKGYWGQGILVTVSS
VL: QSALTQPPSASGSPGQSVTISCIGTSSDVGGYNYVSWYQQHPDKAPKLMIYEVNKRPSGVPDRFSGSKSGNTASLTVSGLQAEDEADYYCSSYAGNNNFGVFGGGTKLTVLG
notes: IgG4 S228P, lambda; parental light chain; also called 4A8 VH M96K
Regarding B4, the “Fold change in binding relative to BKO-4A8” value in assay [1] amounted to 1 fold. Also, in assay [2], the “IC50, CXCL1, Tango assay” value came to 135 pM and the “IC50, CXCL8, Tango assay” value was 91 pM.

B5: BKO-4A8 variant VL N94S (antibody, human IgG4 S228P, lambda, V domains shown)
VH: EVQLLESGGGLVQPGGSLRLSCAASGFTFSSSTMSWVRQAPGKGLEWVSAISGRGRNTYYADSVKGRFTISRDNSRNTLYLQMNSLRAEDTAVYYCAIQMGYWGQGILVTVSS
VL: QSALTQPPSASGSPGQSVTISCIGTSSDVGGYNYVSWYQQHPDKAPKLMIYEVNKRPSGVPDRFSGSKSGNTASLTVSGLQAEDEADYYCSSYAGSNNFGVFGGGTKLTVLG
notes: IgG4 S228P, lambda; parental heavy chain; also called 4A8 VL N94S
With B5, the “Fold change in binding relative to BKO-4A8” value in assay [1] turned out to be 1 fold. In addition, in assay [2], the “IC50, CXCL1, Tango assay” value worked out at 149 pM and the “IC50, CXCL8, Tango assay” value worked out at 169 pM.

B6: BKO-4A8 variant VL N95aQ (antibody, human IgG4 S228P, lambda, V domains shown)
VH: EVQLLESGGGLVQPGGSLRLSCAASGFTFSSSTMSWVRQAPGKGLEWVSAISGRGRNTYYADSVKGRFTISRDNSRNTLYLQMNSLRAEDTAVYYCAIQMGYWGQGILVTVSS
VL: QSALTQPPSASGSPGQSVTISCIGTSSDVGGYNYVSWYQQHPDKAPKLMIYEVNKRPSGVPDRFSGSKSGNTASLTVSGLQAEDEADYYCSSYAGNNQFGVFGGGTKLTVLG
notes: IgG4 S228P, lambda; parental heavy chain; also called 4A8 VL N95aQ
Turning to B6, the “Fold change in binding relative to BKO-4A8” value in assay [1] was found to be 1 fold. In addition, in assay [2], the “IC50, CXCL1, Tango assay” value was 213 pM and the “IC50, CXCL8, Tango assay” value was determined as 84 pM.

B7: BKO-4A8 variant VH M34H (antibody, human IgG4 S228P, lambda, V domains shown)
VH: EVQLLESGGGLVQPGGSLRLSCAASGFTFSSSTHSWVRQAPGKGLEWVSAISGRGRNTYYADSVKGRFTISRDNSRNTLYLQMNSLRAEDTAVYYCAIQMGYWGQGILVTVSS
VL: QSALTQPPSASGSPGQSVTISCIGTSSDVGGYNYVSWYQQHPDKAPKLMIYEVNKRPSGVPDRFSGSKSGNTASLTVSGLQAEDEADYYCSSYAGNNNFGVFGGGTKLTVLG
notes: IgG4 S228P, lambda; parental light chain; also called 4A8 VH M34H
As for B7, the “Fold change in binding relative to BKO-4A8” value in assay [1] is 0.8 fold. In assay [2], the “IC50, CXCL1, Tango assay” value is 186 pM and the “IC50, CXCL8, Tango assay” value turned out to be 107 pM.

B8: BKO-4A8 variant VH M96Q (antibody, human IgG4 S228P, lambda, V domains shown)
VH: EVQLLESGGGLVQPGGSLRLSCAASGFTFSSSTMSWVRQAPGKGLEWVSAISGRGRNTYYADSVKGRFTISRDNSRNTLYLQMNSLRAEDTAVYYCAIQQGYWGQGILVTVSS
VL: QSALTQPPSASGSPGQSVTISCIGTSSDVGGYNYVSWYQQHPDKAPKLMIYEVNKRPSGVPDRFSGSKSGNTASLTVSGLQAEDEADYYCSSYAGNNNFGVFGGGTKLTVLG
notes: IgG4 S228P, lambda; parental light chain; also called 4A8 VH M96Q
Regarding B8, the “Fold change in binding relative to BKO-4A8” value in assay [1] was 1.5 fold. Besides, in assay [2], the “IC50, CXCL1, Tango assay” value came out at 330 pM and the “IC50, CXCL8, Tango assay” value worked out at 140 pM.

B9: BKO-4A8 variant VL N52S (antibody, human IgG4 S228P, lambda, V domains shown)
VH: EVQLLESGGGLVQPGGSLRLSCAASGFTFSSSTMSWVRQAPGKGLEWVSAISGRGRNTYYADSVKGRFTISRDNSRNTLYLQMNSLRAEDTAVYYCAIQMGYWGQGILVTVSS
VL: QSALTQPPSASGSPGQSVTISCIGTSSDVGGYNYVSWYQQHPDKAPKLMIYEVSKRPSGVPDRFSGSKSGNTASLTVSGLQAEDEADYYCSSYAGNNNFGVFGGGTKLTVLG
notes: IgG4 S228P, lambda; parental heavy chain; also called 4A8 VL N52S
With B9, the “Fold change in binding relative to BKO-4A8” value in assay [1] came to 1 fold. In addition, in assay [2], the “IC50, CXCL1, Tango assay” value was determined as 214 pM and the “IC50, CXCL8, Tango assay” value turned out to be 126 pM.

B10: BKO-4A8 variant VH M96A (antibody, human IgG4 S228P, lambda, V domains shown)
VH: EVQLLESGGGLVQPGGSLRLSCAASGFTFSSSTMSWVRQAPGKGLEWVSAISGRGRNTYYADSVKGRFTISRDNSRNTLYLQMNSLRAEDTAVYYCAIQAGYWGQGILVTVSS
VL: QSALTQPPSASGSPGQSVTISCIGTSSDVGGYNYVSWYQQHPDKAPKLMIYEVNKRPSGVPDRFSGSKSGNTASLTVSGLQAEDEADYYCSSYAGNNNFGVFGGGTKLTVLG
notes: IgG4 S228P, lambda; parental light chain; also called 4A8 VH M96A
For the molecule B10, in assay [1], the “Fold change in binding relative to BKO-4A8” value came out at 1.5 fold. In assay [2], the “IC50, CXCL1, Tango assay” value worked out at 140 pM and the “IC50, CXCL8, Tango assay” value was determined as 126 pM.

B11: BKO-4A8 variant VH M34Q (antibody, human IgG4 S228P, lambda, V domains shown)
VH: EVQLLESGGGLVQPGGSLRLSCAASGFTFSSSTQSWVRQAPGKGLEWVSAISGRGRNTYYADSVKGRFTISRDNSRNTLYLQMNSLRAEDTAVYYCAIQMGYWGQGILVTVSS
VL: QSALTQPPSASGSPGQSVTISCIGTSSDVGGYNYVSWYQQHPDKAPKLMIYEVNKRPSGVPDRFSGSKSGNTASLTVSGLQAEDEADYYCSSYAGNNNFGVFGGGTKLTVLG
notes: IgG4 S228P, lambda; parental light chain; also called 4A8 VH M34Q
As to B11, in assay [1], the “Fold change in binding relative to BKO-4A8” value came to 1 fold. In assay [2], the “IC50, CXCL1, Tango assay” value stood at 242 pM and the “IC50, CXCL8, Tango assay” value is 77.6 pM.

B12: BKO-4A8 variant VL N94K (antibody, human IgG4 S228P, lambda, V domains shown)
VH: EVQLLESGGGLVQPGGSLRLSCAASGFTFSSSTMSWVRQAPGKGLEWVSAISGRGRNTYYADSVKGRFTISRDNSRNTLYLQMNSLRAEDTAVYYCAIQMGYWGQGILVTVSS
VL: QSALTQPPSASGSPGQSVTISCIGTSSDVGGYNYVSWYQQHPDKAPKLMIYEVNKRPSGVPDRFSGSKSGNTASLTVSGLQAEDEADYYCSSYAGKNNFGVFGGGTKLTVLG
notes: IgG4 S228P, lambda; parental heavy chain; also called 4A8 VL N94K
In the case of B12, the “Fold change in binding relative to BKO-4A8” value in assay [1] is 1.33 fold. In assay [2], the “IC50, CXCL1, Tango assay” value stood at 123 pM and the “IC50, CXCL8, Tango assay” value is 113 pM.
